# Results as given in patent US20110052551A1, “CARDIAC MYOCYTE MORPHOGENIC COMPOSITIONS AND METHODS OF USE THEREFOR” (priority 2008, published 2011).
# B1: Wnt3a: recombinant Wnt3a protein, canonical Wnt, used at 150 ng/ml (protein, UniProt P56704 19-352, looked up)
# Protein Wnt-3a: SYPIWWSLAVGPQYSSLGSQPILCASIPGLVPKQLRFCRNYVEIMPSVAEGIKIGIQECQHQFRGRRWNCTTVHDSLAIFGPVLDKATRESAFVHAIASAGVAFAVTRSCAEGTAAICGCSSRHQGSPGKGWKWGGCSEDIEFGGMVSREFADARENRPDARSAMNRHNNEAGRQAIASHMHLKCKCHGLSGSCEVKTCWWSQPDFRAIGDFLKDKYDSASEMVVEKHRESRGWVETLRPRYTYFKVPTERDLVYYEASPNFCEPNPETGSFGTRDRTCNVSSHGIDGCDLLCCGRGHNARAERRREKCRCVFHWCCYVSCQECTRVYDVHTCK
# Experiments:
# [1] = tested on: unfractionated BMMNCs; test: Assessment of cardiac differentiation by immunocytochemistry (cMyHC, cTnT); format: cell-based, mice; conditions: 21 days of culture
# Text: (§1) Induction of differentiation. To assess the influence of ectopic expression of Wnt11 on BMMNC differentiation, Wnt11 conditioned medium (Wnt11-CM) was generated. Specifically, unfractionated BMMNCs were co-cultured with Wnt11-expressing HEK-293 cells (Wnt11/293-2; designated as Wnt11-CM), under the same conditions used to culture BMMNCs. In order to achieve strict separation of cell types during co-culture experiments, BMMNC and Wnt11/293 cells were separated into upper and lower chambers of a TRANSWELL® co-culture system. Wnt11/293-2 or pcDNA3/293 (empty vector) cells (the controls in this experiment) were cultured in the upper chamber on the polyester (PET) membrane of a 24 mm TRANSWELL® insert, and unfractionated BMMNCs were cultured in the lower chamber as described above.
# Moreover, to eliminate the possibility of cell fusion or cell-cell contact as a requirement for Wnt11-mediated effects, a membrane pore size of 0.4 μm was chosen, thus preventing egression of Wnt11/293-2 cells to the lower compartment that contained BMMNCs. Of note, TRANSWELL® inserts were maintained separately without cells until day 10 of BMMNC attachment. […]
# Assessment of cardiac differentiation. For quantitative assessment of cardiomyocytic differentiation, an average of 2400 cells/plate were counted. Multiple fields from all 4 quarters of the plate were systematically evaluated. […]
# [2] = tested on: unfractionated BMMNCs; test: qRT-PCR of cardiac-specific mRNA levels in cultured BMMNCs; format: cell-based, mice; conditions: 21 days of culture
# Text: as §1, with “Wnt11/293-2 or pcDNA3/293 (empty vector) cells (the controls in this experiment) were cultured in the upper chamber on the polyester (PET) membrane of a 24 mm TRANSWELL® insert, and unfractionated BMMNCs were cultured in the lower chamber as described above.” left out
# Assessment of mRNA expression by quantitative real-time RT-PCR (qRT-PCR). […] Prior to mRNA extraction, cell number was determined and calculated by Trypan blue exclusion. cDNA was generated from freshly isolated (designated as baseline) and cultured unfractionated BMMNCs at days 0, 3, 7, and 21 (see FIG. 9A) using QUANTISCRIPT REVERSE TRANSCRIPTASE™ (Qiagen Inc., Valencia, Calif., United States of America) contained in RT master mix of Cell to cDNA kits according to manufacturer's protocol. […]
# To avoid amplification of contaminating DNA, all validated qRT-PCR primers were designed to cross […] sequences within the cDNA to be amplified. Quantitative qRT-PCR analysis was performed in an ABI Prism 7900H sequence detection system (Applied Biosystems, Foster City, Calif.) using QUANTITECT™ SYBR® Green Real Time PCR kits. […]
molecule,measurement,setting,value
B1,"expression of cardiac-specific contractile proteins (cTnT, cMyHC)",[1],not observed
same,cardiac-specific transcripts,[2],no cardiac-specific transcripts were detected
